The results in this text go back to paper PMC12016552, “Growth-coupled continuous directed evolution by MutaT7 enables efficient and automated enzyme engineering” (Applied and Environmental Microbiology, 2025).

Numbering of substitutions follows the chain as printed. Names and notes keep the numbering of the source.

Substrate in the series: O=S1(=O)OC(c2ccc(O)c(Cl)c2)(c2ccc(O[C@@H]3O[C@H](CO)[C@H](O)[C@H](O)[C@H]3O)c(Cl)c2)c2ccccc21
In words: purified protein. The format is biochemical, Pyrococcus furiosus. As to conditions: 25 °C, PBS pH 7.4 (CPRG assay as described for screening; screening buffer contained 2.7% glucose).

Broadly, the Km is the substrate concentration at which the rate is half of its maximum. As usually defined, the kcat is the number of substrate molecules converted per active site and unit of time at saturation.

B1: CelB (Pyrococcus furiosus) (protein)
chain: MKFPKNFMFGYSWSGFQFEMGLPGSEVESDWWVWVHDKENIASGLVSGDLPENGPAYWHLYKQDHDIAEKLGMDCIRGGIEWARIFPKPTFDVKVDVEKDEEGNIISVDVPESTIKELEKIANMEALEHYRKIYSDWKERGKTFILNLYHWPLPLWIHDPIAVRKLGPDRAPAGWLDEKTVVEFVKFAAFVAYHLDDLVDMWSTMNEPNVVYNQGYINLRSGFPPGYLSFEAAEKAKFNLIQAHIGAYDAIKEYSEKSVGVIYAFAWHDPLAEEYKDEVEEIRKKDYEFVTILHSKGKLDWIGVNYYSRLVYGAKDGHLVPLPGYGFMSERGGFAKSGRPASDFGWEMYPEGLENLLKYLNNAYELPMIITENGMADAADRYRPHYLVSHLKAVYNAMKEGADVRGYLHWSLTDNYEWAQGFRMRFGLVYVDFETKKRYLRPSALVFREIATQKEIPEELAHLADLKFVTRK
notes: homotetramer
B1: the Km turned out to be 29.1 ± 1.9 µM and the kcat was determined as 0.89 ± 0.04 s⁻¹.

B2: CelB (Pyrococcus furiosus; E365K/G72E) (protein)
chain: B1 chain with G72E, E365K
notes: homotetramer
For the protein B2, under “variant AA10”, the Km came to 19.3 ± 2.5 µM and the kcat was found to be 1.16 ± 0.10 s⁻¹.

B3: CelB (Pyrococcus furiosus; K436N/L412W/Y416H) (protein)
chain: B1 chain with L412W, Y416H, K436N
notes: homotetramer
B3: for the setting “variant W10”, the Km was 17.6 ± 3.6 µM and the kcat turned out to be 1.15 ± 0.18 s⁻¹.
